In patent US20220348647A1 (published 2022):

T1: human CCL17 (human, UniProt Q92583 24-94)
T1 sequence: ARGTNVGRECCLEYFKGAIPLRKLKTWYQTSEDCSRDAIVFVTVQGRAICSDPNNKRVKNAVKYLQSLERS

T2: cyno CCL17 (Macaca fascicularis (cyno), UniProt Q8HYP9 24-94 (rhesus entry))
T2 sequence: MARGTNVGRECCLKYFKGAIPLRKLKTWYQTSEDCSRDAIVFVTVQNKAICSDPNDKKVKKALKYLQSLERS

T3: cyno CCL22 (cyno, UniProt O00626 25-93 (human entry), limits assumed)
T3 construct: Biotinylated in the Fab ELISA; also called cCCL22; CCCL22
T3 chain: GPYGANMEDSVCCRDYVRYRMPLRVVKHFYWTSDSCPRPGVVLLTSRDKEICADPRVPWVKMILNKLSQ

B1: C17B302 (antibody, human IgG2, kappa, V domains shown)
VH: EVQLVQSGAEVKKPGESLKISCKGSGYSFTSYWIGWVRQMPGKGLEWMGIIDPSDSDTRYSPSFQGQVTISADKSISTAYLQWSSLKASDTAMYYCARVGPADVWDAFDYWGQGTLVTVSS
VL: DIVMTQSPDSLAVSLGERATINCKSSQSVLLSFDNINKLAWYQQKPGQPPKLLIYDASTRESGVPDRFSGSGSGTDFTLTISSLQAEDVAVYYCQQFYSVPSTFGQGTKVEIKR
B2: C17B311 (antibody, V domains shown)
VH: EVQLVQSGAEVKKPGESLKISCKGSGYSFTSYWIGWVRQMPGKGLEWMGIIDPSDSDTRYSPSFQGQVTISADKSISTAYLQWSSLKASDTAMYYCARVGPADVWDAFDYWGQGTLVTVSS
VL: DIVMTQSPDSLAVSLGERATINCKSSQSVLLSFDNINKLAWYQQKPGQPPKLLIYDASTRESGVPDRFSGSGSGTDFTLTISSLQAEDVAVYYCQQFYSVPSTFGQGTKVEIK
B3: F24 (Fab, V domains shown)
VH: EVQLVQSGAEVKKPGESLKISCKGSGYSFTSYWIGWVRQMPGKGLEWMGIIDPSDSDTRYSPSFQGQVTISADKSISTAYLQWSSLKASDTAMYYCARVGPADVWDSFDYWGQGTLVTVSS
VL: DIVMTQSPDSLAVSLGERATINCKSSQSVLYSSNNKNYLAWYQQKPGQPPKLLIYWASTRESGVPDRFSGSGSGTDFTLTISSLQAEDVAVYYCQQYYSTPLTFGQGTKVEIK
notes: Semi-purified Fab with a His tag at the C-terminus of the heavy chain; also called C17F24
B4: C17B234 (antibody, V domains shown)
VH: EVQLVQSGAEVKKPGESLKISCKGSGYSFTSYWIGWVRQMPGKGLEWMGIIDPSDSDTRYSPSFQGQVTISADKSISTAYLQWSSLKASDTAMYYCARVGPADVWDSFDYWGQGTLVTVSS
VL: DIVMTQSPDSLAVSLGERATINCKSSQSVLLSFDNINKLAWYQQKPGQPPKLLIYNASTRESGVPDRFSGSGSGTDFTLTISSLQAEDVAVYYCQQFYSVPSTFGQGTKVEIK
notes: Full IgG1, kappa
B5: C17B294 (antibody, IgG1, V domains shown)
VH: EVQLVQSGAEVKKPGESLKISCKGSGYSFTSYWIGWVRQMPGKGLEWMGIIDPSDSDTRYSPSFQGQVTISADKSISTAYLQWSSLKASDTAMYYCARVGPADVWDTFDYWGQGTLVTVSS
VL: DIVMTQSPDSLAVSLGERATINCKSSQSVLLSFDNINKLAWYQQKPGQPPKLLIYDASTRESGVPDRFSGSGSGTDFTLTISSLQAEDVAVYYCQQFYSVPSTFGQGTKVEIK
notes: Expressed as IgG1; Heavy chain S100cT (Kabat) paired with the light chain of C17B258
B6: C17B264 (antibody, IgG1, V domains shown)
VH: EVQLVQSGAEVKKPGESLKISCKGSGYSFTSYWIGWVRQMPGKGLEWMGIIDPSDSDTRYSPSFQGQVTISADKSISTAYLQWSSLKASDTAMYYCARVGPADVWDSFDYWGQGTLVTVSS
VL: DIVMTQSPDSLAVSLGERATINCKSSQSVLLSFDNINKLAWYQQKPGQPPKLLIYIASTRESGVPDRFSGSGSGTDFTLTISSLQAEDVAVYYCQQFYSVPSTFGQGTKVEIK
notes: Expressed as IgG1; Light chain N50I (Kabat) variant of C17B234
B7: C17B262 (antibody, IgG1, V domains shown)
VH: EVQLVQSGAEVKKPGESLKISCKGSGYSFTSYWIGWVRQMPGKGLEWMGIIDPSDSDTRYSPSFQGQVTISADKSISTAYLQWSSLKASDTAMYYCARVGPADVWDSFDYWGQGTLVTVSS
VL: DIVMTQSPDSLAVSLGERATINCKSSQSVLLSFDNINKLAWYQQKPGQPPKLLIYSASTRESGVPDRFSGSGSGTDFTLTISSLQAEDVAVYYCQQFYSVPSTFGQGTKVEIK
notes: Expressed as IgG1; Light chain N50S (Kabat) variant of C17B234
B8: C17F319 variant W→T at HCDR3 position 100a (Kabat) (Fab, V domains shown)
VH: EVQLVQSGAEVKKPGESLKISCKGSGYSFTSYWIGWVRQMPGKGLEWMGIIDPSDSDTRYSPSFQGQVTISADKSISTAYLQWSSLKASDTAMYYCARVGPADVTDSFDYWGQGTLVTVSS
VL: DIVMTQSPDSLAVSLGERATINCKSSQSVLLSPWNSNQLAWYQQKPGQPPKLLIYGASTRESGVPDRFSGSGSGTDFTLTISSLQAEDVAVYYCQQYYLIPSTFGQGTKVEIK
B9: C17B293 (antibody, IgG1, V domains shown)
VH: EVQLVQSGAEVKKPGESLKISCKGSGYSFTSYWIGWVRQMPGKGLEWMGIIDPSDSDTRYSPSFQGQVTISADKSISTAYLQWSSLKASDTAMYYCARVGPADVWDAFDYWGQGTLVTVSS
VL: DIVMTQSPDSLAVSLGERATINCKSSQSVLLSFDNINKLAWYQQKPGQPPKLLIYDASTRESGVPDRFSGSGSGTDFTLTISSLQAEDVAVYYCQQFYSVPSTFGQGTKVEIK
notes: Expressed as IgG1; Heavy chain S100cA (Kabat) paired with the light chain of C17B258; also called C17M293
B10: C17B236 (antibody, V domains shown)
VH: EVQLVQSGAEVKKPGESLKISCKGSGYSFTSYWIGWVRQMPGKGLEWMGIIDPSDSDTRYSPSFQGQVTISADKSISTAYLQWSSLKASDTAMYYCARVGPADVWDSFDYWGQGTLVTVSS
VL: DIVMTQSPDSLAVSLGERATINCKSSQSVLLSPWNSNQLAWYQQKPGQPPKLLIYGASTRESGVPDRFSGSGSGTDFTLTISSLQAEDVAVYYCQQYYLIPSTFGQGTKVEIK
notes: Full IgG1, kappa
B11: C17F319 variant W→R at HCDR3 position 100a (Kabat) (Fab, V domains shown)
VH: EVQLVQSGAEVKKPGESLKISCKGSGYSFTSYWIGWVRQMPGKGLEWMGIIDPSDSDTRYSPSFQGQVTISADKSISTAYLQWSSLKASDTAMYYCARVGPADVRDSFDYWGQGTLVTVSS
VL: DIVMTQSPDSLAVSLGERATINCKSSQSVLLSPWNSNQLAWYQQKPGQPPKLLIYGASTRESGVPDRFSGSGSGTDFTLTISSLQAEDVAVYYCQQYYLIPSTFGQGTKVEIK

What was measured:
human CCL17 [1] = target: T1, human CCL17; experiment: cell-based or functional assay
cyno CCL17 [2] = target: T2, cyno CCL17; experiment: cell-based or functional assay
human CCL17 [3] = target: T1, human CCL17; experiment: cell-based or functional assay; remark: listed apart in the source
cyno CCL17 [4] = target: T2, cyno CCL17; experiment: cell-based or functional assay; remark: listed apart in the source
cyno CCL17 [5] = target: T2, cyno CCL17; experiment: ELISA, Fab captured by anti-kappa, biotinylated chemokine, streptavidin:HRP
Protocol: (§1) Briefly, Maxisorp 96 well plates were coated with 1 μg/ml Goat anti-human Kappa (Southern Biotech). Semi-purified Fab was added to each plate. […] Proteins bound to the captured Fabs were detected using Streptavidin:HRP.

cyno CCL22 = target: T3, cyno CCL22; experiment: as above
Protocol: as §1

human CCL17 [6] = target: T1, human CCL17; experiment: solution equilibrium affinity (MSD-SEA), TBST, 48 h at 4 °C
Protocol: (§2) Equal volumes of the anti-hCCL17 mAbs at 40 pM or 200 pM were added to each chemokine dilution to obtain mixtures containing the serial dilution of chemokines starting at a final concentration of […] and a constant concentration (20 pM or 100 pM) of anti-CCL17 antibody. The mixtures were prepared in duplicate and incubated at 4° C. for 48 hours to reach equilibrium. The free antibody was detected using a SECTOR Imager 6000 (Meso Scale Discovery) instrument. The resulting binding curves were fitted to obtain the dissociation equilibrium constant (KD) using the GraphPad Prism software (v 5.01) using a 1:1 binding model to perform nonlinear least-square regression analysis of the data.

cyno CCL17 [7] = target: T2, cyno CCL17; experiment: as above
Protocol: as §2

human CCL17 [8] = target: T1, human CCL17; experiment: MSD-SEA; affinity for human CCL17 against that for cyno CCL17
Protocol: as §2

human CCL17 [9] = target: T1, human CCL17; experiment: not stated in the legend (affinities by MSD-SEA in Examples 3 and 4)
human CCL17 [10] = target: T1, human CCL17; experiment: solution equilibrium affinity (MSD-SEA), IgG1
Protocol: as §2

cyno CCL17 [11] = target: T2, cyno CCL17; experiment: solution equilibrium affinity (MSD-SEA), IgG1
Protocol: as §2

human CCL17 [12] = target: T1, human CCL17; experiment: ranking ELISA of Fab variants with bt-human CCL17

Binder	IC50 (nM), calcium flux assay in CCRF-CEM cells, 10 ng/ml human CCL17 (human CCL17 [1]) [nM]	IC50 (nM), calcium flux assay in CCRF-CEM cells, 5 ng/ml cyno CCL17 (cyno CCL17 [2]) [nM]	IC50 (nM), β-arrestin assay, Hek293 cells co-expressing CCR4, 20 nM CCL17 (human CCL17 [3]) [nM]	IC50 (nM), β-arrestin assay, Hek293 cells co-expressing CCR4, 20 nM CCL17 (cyno CCL17 [4]) [nM]	Fold binding human/cyno CCL17 (human CCL17 [8]) [fold]	Kd (human CCL17 [9]) [nM]	Kd (human CCL17 [10]) [nM]	Kd (cyno CCL17 [11]) [nM]	also measured
B1	0.593	0.238	13.9	13.4	–	–	–	–	–
B2	0.553	0.239	10.7	10.3	–	–	–	–	–
B3	–	–	–	–	–	–	–	–	binding result (cyno CCL17 [5]): binds; binding result (cyno CCL22): no binding
B4	0.421	0.369	8.42	5.39	115	≤ 100	–	–	Kd (human CCL17 [6]): 0.002 nM; Kd (cyno CCL17 [7]): 0.23 nM
B5	–	–	–	–	22	≤ 100	0.001	0.022	–
B6	–	–	–	–	180	–	0.0004	0.0718	–
B7	–	–	–	–	185	–	0.0003	0.0555	–
B8	–	–	–	–	–	–	–	–	binding result (human CCL17 [12]): binds
B9	–	–	–	–	–	≤ 100	< 0.0001	0.039	–
B10	0.385	0.349	6.98	9.5	7.6	≤ 100	–	–	Kd (human CCL17 [6]): 0.039 nM; Kd (cyno CCL17 [7]): 0.297 nM
B11	–	–	–	–	–	–	–	–	binding result (human CCL17 [12]): binds
